Test results published in publication PMC7954794, “Protein context shapes the specificity of SH3 domain-mediated interactions in vivo” (Nature Communications, 2021).

Test system: Abp1 PPIs
Experiment: DHFR-PCA of Abp1 SH3-swapped baits (Fig. 2B-D, S2C, S2F);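 for Protein-protein interaction distance between Abp1 SH3-swapped baits, to ABP1: Euclidean distance between DHFR-PCA score profiles of the baits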;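 for Protein-protein interaction distance between Abp1 SH3-swapped baits, to BEM1-2: Euclidean distance between DHFR-PCA score profiles of the baits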;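 for Protein-protein interaction distance between Abp1 SH3-swapped baits, to BOI1: Euclidean distance between DHFR-PCA score profiles of the baits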;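 for Protein-protein interaction distance between Abp1 SH3-swapped baits, to BZZ1-1: Euclidean distance between DHFR-PCA score profiles of the baits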
Type: cell-based, Saccharomyces cerevisiae
In short: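 Yeast DHFR-PCA in which Abp1 baits, carrying their SH3 replaced by CRISPR–Cas9 with one of 27 yeast SH3s or human CTTN, HCLS1 or DBNL SH3s, were mated against 575 SH3-associated DHFR F[3] preys plus 40 negative controls. Four tests were run per PPI. Diploids were selected twice (48 h, 30 °C), then grown 4 days on PCA selection media.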

[1] = number of PPIs, difference, Abp1 SH3-swapped with the listed SH3, Fig2D,S2F

B1: PEX13 (protein, UniProt P80667 1-386, looked up)
Peroxisomal membrane protein …: MSSTAVPRPKPWETSASLEEPQRNAQSLSAMMTSNQQDSRPTEESNNSNSASESAPEVLPRPAALNSSGTYGESNTIPGIYGNSNYGIPYDNNPYSMNSIYGNSIGRYGYGGSYYGNNYGSFYGGGYGAGAGYGMNNGSGLGESTKATFQLIESLIGAVTGFAQMLESTYMATHNSFFTMISVAEQFGNLKEMLGSFFGIFAIMKFLKKILYRATKGRLGIPPKNFAESEGSKNKLIEDFQKFNDSGTINSNEKATRRKISWKPLLFFLMAVFGFPYLLNKFITKLQTSGTIRASQGNGSEPIDPSKLEFARALYDFVPENPEMEVALKKGDLMAILSKKDPLGRDSDWWKVRTKNGNIGYIPYNYIEIIKRRKKIEHVDDETRTH
Protein-protein interaction distance between Abp1 SH3-swapped baits, to ABP1 (Abp1 bait with swapped SH3, distance to bait with ABP1 SH3, sheet Fig2C): 10.96
Protein-protein interaction distance between Abp1 SH3-swapped baits, to BBC1 (distance to Abp1 bait with BBC1 SH3, sheet Fig2C): 10.86
Protein-protein interaction distance between Abp1 SH3-swapped baits, to BEM1-1 (distance to Abp1 bait with BEM1-1 SH3, sheet Fig2C): 16.62
Protein-protein interaction distance between Abp1 SH3-swapped baits, to BEM1-2 (distance to Abp1 bait with BEM1-2 SH3, sheet Fig2C): 35.19
Protein-protein interaction distance between Abp1 SH3-swapped baits, to BOI1 (distance to Abp1 bait with BOI1 SH3, sheet Fig2C): 13.22
Protein-protein interaction distance between Abp1 SH3-swapped baits, to BOI2 (distance to Abp1 bait with BOI2 SH3, sheet Fig2C): 16.99
Protein-protein interaction distance between Abp1 SH3-swapped baits, to BUD14 (distance to Abp1 bait with BUD14 SH3, sheet Fig2C): 19.91
Protein-protein interaction distance between Abp1 SH3-swapped baits, to BZZ1-1 (distance to Abp1 bait with BZZ1-1 SH3, sheet Fig2C): 7.297
Protein-protein interaction distance between Abp1 SH3-swapped baits, to BZZ1-2 (distance to Abp1 bait with BZZ1-2 SH3, sheet Fig2C): 13.09
Protein-protein interaction distance between Abp1 SH3-swapped baits, to CDC25 (distance to Abp1 bait with CDC25 SH3, sheet Fig2C): 29.16
Protein-protein interaction distance between Abp1 SH3-swapped baits, to CTTN (distance to Abp1 bait with CTTN SH3, sheet Fig2C): 14.16
Protein-protein interaction distance between Abp1 SH3-swapped baits, to CYK3 (distance to Abp1 bait with CYK3 SH3, sheet Fig2C): 29.86
Protein-protein interaction distance between Abp1 SH3-swapped baits, to DBNL (distance to Abp1 bait with DBNL SH3, sheet Fig2C): 7.699
Protein-protein interaction distance between Abp1 SH3-swapped baits, to FUS1 (distance to Abp1 bait with FUS1 SH3, sheet Fig2C): 21.37
Protein-protein interaction distance between Abp1 SH3-swapped baits, to HCLS1 (distance to Abp1 bait with HCLS1 SH3, sheet Fig2C): 8.5
Protein-protein interaction distance between Abp1 SH3-swapped baits, to HOF1 (distance to Abp1 bait with HOF1 SH3, sheet Fig2C): 33.79
Protein-protein interaction distance between Abp1 SH3-swapped baits, to HSE1 (distance to Abp1 bait with HSE1 SH3, sheet Fig2C): 8.715
Protein-protein interaction distance between Abp1 SH3-swapped baits, to LSB1 (distance to Abp1 bait with LSB1 SH3, sheet Fig2C): 6.728
Protein-protein interaction distance between Abp1 SH3-swapped baits, to LSB3 (distance to Abp1 bait with LSB3 SH3, sheet Fig2C): 7.361
Protein-protein interaction distance between Abp1 SH3-swapped baits, to MYO3 (distance to Abp1 bait with MYO3 SH3, sheet Fig2C): 8.874
Protein-protein interaction distance between Abp1 SH3-swapped baits, to MYO5 (distance to Abp1 bait with MYO5 SH3, sheet Fig2C): 7.969
Protein-protein interaction distance between Abp1 SH3-swapped baits, to NBP2 (distance to Abp1 bait with NBP2 SH3, sheet Fig2C): 19.13
Protein-protein interaction distance between Abp1 SH3-swapped baits, to PEX13 (distance to Abp1 bait with PEX13 SH3, sheet Fig2C): 0.00
Protein-protein interaction distance between Abp1 SH3-swapped baits, to PIN3 (distance to Abp1 bait with PIN3 SH3, sheet Fig2C): 5.433
Protein-protein interaction distance between Abp1 SH3-swapped baits, to RVS167 (distance to Abp1 bait with RVS167 SH3, sheet Fig2C): 4.587
Protein-protein interaction distance between Abp1 SH3-swapped baits, to SDC25 (distance to Abp1 bait with SDC25 SH3, sheet Fig2C): 35.86
Protein-protein interaction distance between Abp1 SH3-swapped baits, to SHO1 (distance to Abp1 bait with SHO1 SH3, sheet Fig2C): 8.672
Protein-protein interaction distance between Abp1 SH3-swapped baits, to SLA1-1 (distance to Abp1 bait with SLA1-1 SH3, sheet Fig2C): 31.78
Protein-protein interaction distance between Abp1 SH3-swapped baits, to SLA1-2 (distance to Abp1 bait with SLA1-2 SH3, sheet Fig2C): 21.86
Protein-protein interaction distance between Abp1 SH3-swapped baits, to SLA1-3 (distance to Abp1 bait with SLA1-3 SH3, sheet Fig2C): 6.985
Protein-protein interaction distance between Abp1 SH3-swapped baits, to YSC84 (distance to Abp1 bait with YSC84 SH3, sheet Fig2C): 7.848
PPIs gained by Abp1 - SH3-dependent PPIs gained by Abp1 [1]: 23
SH3-dependent PPIs - SH3-dependent PPIs gained by Abp1 [1]: 0
SH3-dependent PPIs gained by Abp1 (number of PPIs, Abp1 SH3-swapped with the listed SH3, DHFR-PCA, Fig2D,S2F): 1
